Reference: publication PMC6044951

Substrate: O=c1ccn([C@@H]2O[C@H](CO[P@@](=O)(O)O[P@@](=O)(O)O[C@H]3O[C@H](CO)[C@@H](O)[C@H](O)[C@H]3O)[C@@H](O)[C@H]2O)c(=O)[nH]1
Assay: purified protein
Conditions: 30 °C, Michaelis-Menten fit

B1: BcsA-BcsB (Cereibacter sphaeroides 2.4.1) (protein)
chain: MTVRAKARSPLRVVPVLLFLLWVALLVPFGLLAAAPVAPSAQGLIALSAVVLVALLKPFADKMVPRFLLLSAASMLVMRYWFWRLFETLPPPALDASFLFALLLFAVETFSISIFFLNGFLSADPTDRPFPRPLQPEELPTVDILVPSYNEPADMLSVTLAAAKNMIYPARLRTVVLCDDGGTDQRCMSPDPELAQKAQERRRELQQLCRELGVVYSTRERNEHAKAGNMSAALERLKGELVVVFDADHVPSRDFLARTVGYFVEDPDLFLVQTPHFFINPDPIQRNLALGDRCPPENEMFYGKIHRGLDRWGGAFFCGSAAVLRRRALDEAGGFAGETITEDAETALEIHSRGWKSLYIDRAMIAGLQPETFASFIQQRGRWATGMMQMLLLKNPLFRRGLGIAQRLCYLNSMSFWFFPLVRMMFLVAPLIYLFFGIEIFVATFEEVLAYMPGYLAVSFLVQNALFARQRWPLVSEVYEVAQAPYLARAIVTTLLRPRSARFAVTAKDETLSENYISPIYRPLLFTFLLCLSGVLATLVRWVAFPGDRSVLLVVGGWAVLNVLLVGFALRAVAEKQQRRAAPRVQMEVPAEAQIPAFGNRSLTATVLDASTSGVRLLVRLPGVGDPHPALEAGGLIQFQPKFPDAPQLERMVRGRIRSARREGGTVMVGVIFEAGQPIAVRETVAYLIFGESAHWRTMREATMRPIGLLHGMARILWMAAASLPKTARDFMDEPARRRRRHEEPKEKQAHLLAFGTDFSTEPDWAGELLDPTAQVSARPNTVAWGSN
Km: 0.34 ± 0.07 mM
kcat: 0.43 ± 0.17 s⁻¹
